Data on one molecule can be found in doi:10.1101/2021.01.25.428185 (bioRxiv, 2021).

Substitutions are numbered along the chain they refer to.

Test [1] addresses T1, GST-Rab11A(CN), mouse Rab11A(N124I), GDP-loaded (mouse, UniProt P62492 1-216, N124I).
T1 sequence (looked up): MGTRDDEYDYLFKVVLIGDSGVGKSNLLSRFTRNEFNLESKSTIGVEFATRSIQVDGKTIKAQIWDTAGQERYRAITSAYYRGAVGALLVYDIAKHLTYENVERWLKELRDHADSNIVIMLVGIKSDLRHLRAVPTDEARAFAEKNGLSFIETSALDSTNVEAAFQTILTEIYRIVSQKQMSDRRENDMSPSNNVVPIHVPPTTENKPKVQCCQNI
Briefly: pull-down.

Test [2] deals with T2, GST-Rab11A(CA), mouse Rab11A(Q70L), GTPγS-loaded (mouse, UniProt P62492 1-216, Q70L).
T2 sequence (looked up): T1 sequence (looked up) with Q70L, I124N
Briefly: pull-down.

B1: T7-tagged Rab11-FIP2-C (domain or fragment, mouse, UniProt G3XA57 389-512, looked up)
chain: PSAFSENRQDYFEYESTNPFTAKFRASTIMPSSSFHVNPTSSEDLRKIPDNNPFDATAGYRSLTYEEVLQELVKHKELLRRKDTHIRELEDYIDNLLVRVMEETPSILRVPYEPSRKAGKFTNS
In the case of B1, the binding result in test [1] and in test [2] was “binds” in each case.
